Source: the DeepSol protein solubility set

Assay: soluble on expression in E. coli; label from the status in PepcDB or PDB records
In the case of “MSLAEEISQTTAADTAVTEVRTEDSSQTSSQETAVTETTQSEGTASKQLTTPAVADQTTEPTDNEPISSSDGASSPYQVTDTTEPQQTLTPADSEPQAKADVQQAAAPKKEEINPVTNLEDMSHDTNGTWEVREDGIHSNAIGKGDSFLYSQSSGKNFVYATDVTFKQNSGAAALVFRSNNDSNNKNMYAVNVDIGGHKAKFWRWVDNKDIQLIDERDVVPTADNRYTLKVVAVNNWISYYVNDILMASTGDYVLQKADKGQNTVIPEGHFGLLNWNGDMVFQNTKFALLDDTTAPLIDNITVRSDRGNVEKQGQFFSEEPLHIQYVSNDASQVSLDIAKHNPAATVTVEDKTGRVYTDPSHLPVNVGANYFTVKSTVIDSFGRTVTLTYRINVHRRQNDEVYYNELYRDQYHYSVKDGWANDPNGLVYYNGVYHLFHQFYDDTKWGPMHWAHATSTDLIHWKEEPIAFYPDSNGYMFSGCVVVDEHNSSGLFKTAKGGLVAIITANGNGQRMELAYSEDEGKTWQKYDRIVADWSNDPLQNQDFRDPKVFHWNNQWFMVLAGGPLRIYSSNNLKDWKVESTYPDLHTECPDMYPIVANDGVLKWVLSRGGRFYKVGDFKQVDGKWTFIADDAYKDKDQVMNFGKDSYAAMTYYVHDFGTETRPTIPKLTEVNWMNTWEDYCNLVADTVGQDFNGTFNLNLDLGLINENGQYILTQTPVKAYDSLRDVNTALHFKDVTVDANNTLLKDFKGDSYEIVSHFRPDEKTTKVGFNLRVGNGQATKVIYDLQTETLSIDRSQSGTILSAAFAKVNSQHVTKNADGSIDLHIYVDRASVEVFSKNNTVAGANQIFPNPEAVGASIIVEGGKAQADISVYQMKTIWTDKKDTAKPVAMNTTTAKELALQVGQSQDLQVYLAPASVRQDVEWTISDPSLVRTSQKGNVLHLTAVKKGKLTITAISKENPSLSKTFTISITLNNFKTNLKGLQSVTGKWYVDDETLYDSNTSSNDYYMASQKPGFKEYDYDIDLKYQRGLINLFVASGNIDPSQAYSVQFGDSETVRLYRFAGDTIAEANMGKRINDDQYHHIKVTKTKNSIIISVDGQEVMSHNFDQVDSYFNDAYVGLGLWDGAVEFQNFFVTDHATTPKPDSDPTPQPDAPEALAQERELIDPATGVRVILQKGELASIVRVKVSHIETNDAHTPAVLNAKDYDLFNITPIDKNEKVVAITKPATVLLPIDAGKVVDKVVYLPNTDKEENLPFTIVSLTDSNGKKQSYVRFTAEHFSEYGLVYQAENQTNLKSKEKQDNVAISYPLNLEQEVKVSSISRKYAANKTADVNSVQQTEPSVMSSSPKATLPDTGDHKTDLSQLGVLAMIGSFLVEIAGYFKKRKDEGHHHHHH”, the “soluble on expression in E. coli” value is reported as “soluble”. In the case of “MPKPSVGINGFGRIGRLVLRAAVEKDSVNVVAVNDPFISIDYMVYLFQYDSTHGRFKGTVAHEGDYLLVAKEGKSQHKIKVYNSRDPAEIQWGASGADYVVESTGVFTTIEKANAHLKGGAKKVIISAPSADAPMFVVGVNHEKYDHANDHIISNASCTTNCLAPLAKVINDNFGIIEGLMTTVHAVTATQKTVDGPSGKLWRDGRGAGQNIIPASTGAAKAVGKVIPELNGKLTGMAFRVPTPDVSVVDLTARLEKPASLDDIKKVIKAAADGPMKGILAYTEDQVVSTDFVSDTNSSIFDAGASISLNPHFVKLVSWYDNEFGYSNRVVDLISYIATKA”, the “soluble on expression in E. coli” value is reported as “not soluble”. In the case of “MGSDKIHHHHHHMKIGILSQFPELYSTRRLVAACESRGHEAVVINTLNCYMNINSIKPSIHYQGQELTGFDAIIPRIHASVTFYGCAVVRQFEMMGVFAANDSISIARSRDKLRALQLLSRKGIGMPITGFANKPNDIPDLINMVGGAPLVIKLLEGTQGIGVVLAETKTAAESVIEAFLGLKANIMLQEYIKESNGSDIRCFVVGDKVVASMKRQGPEGDFRSNLHLGGCGEKVKITPKERKMAVAAVKAMGLVVAGVDILRSNRGPLILEVNSAPGIEGIEQTTGISVTEPIVEYIEKMVLAQKSNRPVIA”, the “soluble on expression in E. coli” value is reported as “not soluble”. In the case of “MGSDKIHHHHHHMSDYLRGKRVVDPVLTSVARGYKNAAFVGESIFPIVQVEKEGIVVPLFGKGAFVEYDTERAVGAESNVLLREKSSSMDLVLNEHDLAAPVDYREQAESLFNEEAKAIRRATNGVNLKRELYAARLAQDPKVYLAASKKTLAAAERWANGKGEPVTVIEAGIEAVRNATGLRPNLLTMGASVMSVLRYHPAIQAQIGANERKRITAEILQDIFQINKVLIGEPVSSPDGKKAPIDVWADNLMLHYVSPPQPGTESADENEPSFGYTFRRKGMPVSDKYPGVGGKVSYARFTDIYKVAVVGGDAGYLITNILK”, the “soluble on expression in E. coli” value is reported as “not soluble”. With “MGSDKIHHHHHHMTLSSSFAQLKDFKFKFYGQIRTDFYYNSRANEETVDGLFYMYPKDEVLDGNGEDLNATSNSNFYTLYSRLGLDVAGPKLGTAKTSAKVEVDFRGSGTSYSTIRLRHAYFNLDWGKSAVLVGQTWHPLFGDVSPQILNLSVGAPFQPFSRAPQIRYRFNNKHLQLTGALVWQSQYLSQGPAGKSQEYIKKSNIPEIYVGADYKNGGFLAGAGIEMISLKPRTQSSWEEKTFDPTTNSTISIPHTYKVDERITTLSYEAHVKYTNKNWFIGAKSVLGSNLTQASGLGGFGIKHIDNKTKEQEYTPIRFSSSWLNVVYGQKWKPGIFVGYAKNLGTSDELVSEKLYGTGTNLDKLVTAGAELTYNVPHWKFGVEYTLSSAWYGKLDKSDGKIIDTHSVSNNRIVAVAMFMF” the “soluble on expression in E. coli” value was “not soluble”. In the case of “MPGIIYEGKGTNMEYADVFDSLVGDLKDDVLSLQLTNFDDVNHSYKSDGKCSMSVKDFDGYAENMPVKNVEYNGQKYIFMRSISDDAQPSQVFISVDGDERGRKRGMLITSFCGILRMISTFDYQIANSVTAKIFKVLGEYSCEEEE”, the “soluble on expression in E. coli” value is reported as “not soluble”. For “MGVNGAAGRSPGPKAVKPASVAIAVDYAMLTHEQAAVCAMRHERIDINPEVMGGKPVVRGTRIPVEMILRKLGAGLSTAEIIADHPRLTADDILAVQTFAADYLADQDVIFG”, the “soluble on expression in E. coli” value was “not soluble”. For “MSLDIKQLKFLIALDQTRHFGQAAALCHITQPTLSMRLRNLEDELDLVLVKRGQRFEGFTEAGERILAWARTLLAAHDGLQAEAASCRGQVVGSLRLGTVPLASFNPMHLLLPLREKYPELHFQLSSLSSEQVIDGLSRNQLDLGICYLDQVNTSFFEVIELGTTTMGLLHDTRHFQFTSDRLRWDELGDIPLGLLSKGMHYRQSLDLSFRSRGLEPNAVLESDSSFQLIQAINTGICCAIMPLDCGLEDLSEHLRIVPVADAAIHSPVGLLLRRSEPRSAIAEQCFAEARGLFQASEGHHHHHH”, the “soluble on expression in E. coli” value was “soluble”. For “MTIEKPKISVAFIALGNFCRSPMAEAIFKHEVEKANLENRFNKIDSFGTSNYHVGESPDHRTVSICKQHGVKINHKGKQIKTKHFDEYDYIIGMDESNINNLKKIQPEGSKAKVCLFGDWNTNDGTVQTIIEDPWYGDIQDFEYNFKQITYFSKQFLKKEL”, the “soluble on expression in E. coli” value was “soluble”. With “MIHTEPSAQPSTMDTAAFLKHIESAFRRIFSDGIDLMRYLPEDKWLALKQAGLLLPFLDKKYGGRKGSQFEIQEVLRIAGHYGVPVTLRTGIEGALVLQPLQEFGDEAQVAQGLEMIFKGEGGGLGVTEPETSGAAIAREMQSYYEYIDGQTIYVNAAKYWQGNSQSDFLLVAAKERKNGKLAKVIDLLLVPKTYIRCETLASEGLRAVRYAVNRIDAEMPATAVMKLSQSDAAGLRAFQNIFIRSRLQLIGMTHGIMEYILENLERYVRNDIKFVDYERREIRRRHQVSEILYRYVCHSVSPVAPVAHQLMEANIVKTLATEYTYAAAQMLQKLLGAKGFERGHTAGNIAIDIRPFTIFEGPNDMLYAEIYDQFVRATAEEKEAGMKLDKNQTLLDRLQTDARFAAVARDYTLPEDIRSFLQEHTLTDACALQKVFIGKIIARLFVFVQAKHEDTAAFLLNDIRKDILDCRYCG” the “soluble on expression in E. coli” value was “not soluble”. For “MVHAFLIHTLRAPNTEDTGLCRVLYSCVFGAEKSPDDPRPHGAERDRLLRKEQILAVARQVESMCRLQQQASGRPPMDLQPQSSDEQVPLHEAPRGAFRLAAENPFQEPRTVVWLGVLSLGFALVLDAHENLLLAEGTLRLLTRLLLDHLRLLAPSTSLLLRADRIEGILTRFLPHGQLLFLNDQFVQGLEKEFSAAWPR”, the “soluble on expression in E. coli” value was “not soluble”. With “MGDNLTDLPGVGPSTAEKLVEAGYIDFMKIATATVGELTDIEGISEKAAAKMIMGARDLCDLGFKSGIDLLKQRSTVWKLSTSSSELDSVLGGGLESQSVTEFAGVFGSGKTQIMHQSCVNLQNPEFLFYDEEAVSKGEVAQPKAVYIDTDGTFRPERIMQMAEHAGIDGQTVLDNTFVARAYNSDMQMLFAEKIEDLIQEGNNIKLVVIDSLTSTFRNEYTGRGKLAERQQKLGRHMATLNKLADLFNCVVLVTNQVSAKPDAFFGMAEQAIGGHIVGHAATFRFFVRKGKGDKRVAKLYDSPHLPDAEAIFRITEKGIQD” the “soluble on expression in E. coli” value was “soluble”. For “WAALHEGLNIRQAEVHGMSQRGGAVQSHLRISDQELFADLIGLGTGDLILSVEPLEALRYLPYLAPDGRIVTSLDPFVNMTGYPPMEEIEAELGKTGRPVLVHAADLAKDAGSARASNMVMLGAGAPFAGIAPSKLEASIEALFSTKGQEVVDINIRAFRKGLQL”, the “soluble on expression in E. coli” value was “not soluble”. In the case of “MSVDLAHIRQVRAEADCLFNNDEVEAAIGRVAEAINRDLGETNPVVFCVMNGGLIFSGKLLPLLDFPLELSYLHATRYRNETSGGELFWKAKPEISFIDRDVLIIDDILDEGHTLSAIIDFCKHAGARAVHTAVLVDKEHERKARPDLKASFTGLYCADRYVFGYGMDYKGYWRNAAGIFAVKGL”, the “soluble on expression in E. coli” value is reported as “not soluble”. For “MDAVVATQTPAEVFDVVVVGGGPAGATAATDLARAGRRVALLDPEGRPKPCGGAIPPRLMSEFAIPDDLPCAQVSGARALAPSGRVVDMPITGAVVSMVDRAVFDPWLRARAHQAGACRLHGRFEGFDRQEDGALVVLWRPEGAAVANRIVARYVVGADGARSKVAALAVAGAAPPCVAAYHEIIRAPAAPAASAPTPATAAGPAYDPARCDVIYRGDISPDFYGWIFPHGETLSIGSGTAVKGFSLREAVALLRREAGLDGLEVVRREGAPIPLRPRKRWDNGRDVVLIGDAAGVVAPASGEGIYYAMASGKMAAEALGEALAGAGPAALAQVRRRFLKAHGKTFWSLGLLQRFWYRSDRWRESFVAICADRDVQRLVWQSYLTKDLARGNMGAYMRIFFKDVAHLIGIAKSLEHHHHHH”, the “soluble on expression in E. coli” value was “not soluble”. With “MGSDKIHHHHHHMEERIGLIDIGSNTIRLVIFGYNKKTGLNEILNIKTPARLSQYLTKSNEMNDEGIHVLKETLSSFRKVADKFNVDALYPIATAAIRQSKNREAIIKEIKQDIHIEIQIVPEEDEAFYGYYAITHTTDIENGISVDIGGGSTEVTLFKDKQLKEAHSFPFGVVSLKRQFFGDKAHNDKTAIKNMEQFLREQFSQLDWLSNQHIALVGVGGSARNVARIHQSAHAYPIGGVHNYKMTSKDINNVYDLIRKSSRDELTNLDGLSRDRVDIILPAISVFKTLFKKIDATQFTFSRKGIREGFIMNHISKRYPDEFNKSNVRKDALRHLANEYHIEETSANRRVKLAQSLLNQIISERSLNISAMEKELFIEGSYIYYLGSFIDSDSSSPHTYYLIANSMINGFSHKDRVKLALLASFKNKSLLKFYCKETQWFSNKEIDTIQALGGIIKFANTLNISHTSFVEEVKLKAKKDDKYDLLVYYKGSPIAEEYQANRQKKHIEKILKGKVSIIFTKS” the “soluble on expression in E. coli” value was “not soluble”. With “MKYLAGIVTFNPNIERLDQNIRAIYPQVSHIYIVDNGSKNKEEISQLVADYNEEGHLTVDYLTENKGIAYALNCIGQFAVAQEFDWFLTLDQDSVVLGDLIDNYENYLHLPKVGMLSCLYQDMNRENLVMQEFDYKEIEECITSAALMKTSVFEETSGFAEEMFIDFVDSEMNYRLSEMGYKTYQVNFIGLLHEIGHSSRVKKFGHVFHVLNHSPFRKYYMIRNAIYIIKKYGKKKRYKYLVFMRNEFVRVLVAEEQKSKKIVAMIKGLKDGLLMKVDKYGKLEHHHHHH” the “soluble on expression in E. coli” value was “soluble”.
